Results published in US20230203203A1 (YISSUM RESEARCH DEVELOPMENT COMPANY OF THE HEBREW …, published 2023).
Square brackets hold non-standard residues; d marks the D form. Ends that are not written are not given here. AEEA = NCCOCCOCC(=O)O

T1: human CD177 (human, UniProt Q8N6Q3 22-408)
T1 construct: whole, on cells; On circulating human neutrophils of donors and patients; also called CD177 (on human neutrophils)
T1 sequence (looked up): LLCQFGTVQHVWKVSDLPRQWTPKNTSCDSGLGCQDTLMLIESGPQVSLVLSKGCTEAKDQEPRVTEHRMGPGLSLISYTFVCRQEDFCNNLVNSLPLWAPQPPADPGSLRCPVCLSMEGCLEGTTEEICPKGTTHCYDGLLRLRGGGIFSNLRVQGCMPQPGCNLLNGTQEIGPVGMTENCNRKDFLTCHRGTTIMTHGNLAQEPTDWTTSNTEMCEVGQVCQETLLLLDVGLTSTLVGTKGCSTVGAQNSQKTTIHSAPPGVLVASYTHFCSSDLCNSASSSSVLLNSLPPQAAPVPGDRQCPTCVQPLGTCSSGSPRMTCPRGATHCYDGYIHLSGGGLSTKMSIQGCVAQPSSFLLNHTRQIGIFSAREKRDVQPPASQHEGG

T2: murine CD177 (mouse, UniProt Q8R2S8 22-817)
T2 construct: whole, on cells; On murine neutrophils (HDN, TAN, circulating), on HEK293T cells ectopically expressing it, and from neutrophil lysate in the pull-down; also called mouse CD177; CD177 (on murine neutrophils)
T2 sequence (looked up): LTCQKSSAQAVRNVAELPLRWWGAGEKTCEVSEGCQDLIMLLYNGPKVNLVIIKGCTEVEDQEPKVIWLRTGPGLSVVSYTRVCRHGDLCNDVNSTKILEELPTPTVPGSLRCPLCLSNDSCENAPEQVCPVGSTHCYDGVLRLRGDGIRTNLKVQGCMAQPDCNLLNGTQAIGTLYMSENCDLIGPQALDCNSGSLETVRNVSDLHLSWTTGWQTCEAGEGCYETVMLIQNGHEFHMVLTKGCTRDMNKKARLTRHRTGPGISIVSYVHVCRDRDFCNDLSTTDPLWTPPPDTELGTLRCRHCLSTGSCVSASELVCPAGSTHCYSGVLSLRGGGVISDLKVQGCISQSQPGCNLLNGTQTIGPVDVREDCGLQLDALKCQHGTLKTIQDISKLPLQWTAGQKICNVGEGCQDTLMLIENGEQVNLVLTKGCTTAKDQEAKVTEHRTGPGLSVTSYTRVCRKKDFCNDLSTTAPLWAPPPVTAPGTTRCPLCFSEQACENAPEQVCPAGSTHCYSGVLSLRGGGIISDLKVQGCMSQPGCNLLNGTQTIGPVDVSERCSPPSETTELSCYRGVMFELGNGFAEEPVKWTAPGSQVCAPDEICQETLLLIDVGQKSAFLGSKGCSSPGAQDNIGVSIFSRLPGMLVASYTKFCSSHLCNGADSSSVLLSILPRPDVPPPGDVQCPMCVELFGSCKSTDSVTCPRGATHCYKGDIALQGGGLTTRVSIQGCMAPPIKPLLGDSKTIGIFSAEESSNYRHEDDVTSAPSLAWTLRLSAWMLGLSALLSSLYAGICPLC

B1: phage presenting peptide SEL (other)
chain: SELRSTPLLVPS
notes: not shown: phage coat protein pVIII flanking the inserted peptide
B2: phage presenting peptide SLE (other)
chain: SLESSPMAQLPQ
notes: as for B1
B3: phage presenting peptide 27 (LAT) (other)
chain: LATTHMVFSPDH
notes: as for B1
B4: phage presenting peptide 1.1 (KFP) (other)
chain: KFPDLDSRRLPHMSL
notes: detected with PE-conjugated anti-M13 antibody; not shown: phage coat protein pVIII flanking the inserted peptide
B5: phage presenting peptide 4 (PSS) (other)
chain: PSSNLESTPLSLL
notes: as for B1
B6: phage presenting peptide ELV (other)
chain: ELVTASMPRPNN
notes: as for B1
B7: phage presenting peptide PEL (other)
chain: PELDSKPYFPPL
notes: as for B1
B8: LQI tetramer peptide, (LQIQSWSSSP-Doa-Doa-C)4-(Mpa)4-Lys2-Lys-beta-Ala-Lys(Biotin)-beta-Ala-OH (peptide)
peptide: LQIQSWSSSP[AEEA][AEEA]C
modifications: also: tetramer: four chains joined via Cys-Mpa to branched Lys core
notes: Branched tetramer, MW 7.6 kDa; Detected with SA-Cy3 after washing ('tetramer alone' assay); also called tetrameric LQI; biotinylated LQI-tetramer

Tests used:
human CD177 [1] = biological target: T1, human CD177; assay: flow cytometry on WBCs of healthy volunteers, anti-M13-PE (FIG. 13I)
Method: In order to assess the binding efficiency of each peptide to human circulating neutrophils, and the level of variability between individuals, the individual binding of each peptide to 5-8 healthy volunteers was assessed. Blood withdrawn from healthy volunteers was overlaid on 3% dextran in 0.9% NaCl in a 1:1 ratio and left at RT for 25 min to allow erythrocyte sedimentation. Residual RBCs were lysed by adding water for 30 sec and stopped by adding PBS×5 supplemented with 2.5% BSA. Following red blood cell lysis, 0.5×10⁶ WBCs were incubated with each phage separately. The level of binding of the different phages to the neutrophils was then assessed by flow cytometry. Neutrophils were identified based on a CD66b⁺ SSC^high gating, and the level of phage binding was assessed using PE-conjugated anti-M13 antibody for specific phage staining.

murine CD177 [2] = biological target: T2, murine CD177; assay: flow cytometry on WBC of 4T1 tumor bearing mice, anti-M13-PE; target named as neutrophils
human CD177 [3] = biological target: T1, human CD177; assay: negative control on WBCs of a lung cancer patient, flow cytometry
murine CD177 [4] = biological target: T2, murine CD177; assay: titration on purified murine HDNs, flow cytometry; target named as neutrophils
murine CD177 [5] = biological target: T2, murine CD177; assay: pull-down from murine neutrophil lysate with biotinylated LQI-tetramer on streptavidin-agarose beads, mass spectrometry
Method: After washing, the bound proteins were eluted by incubating the beads for 10 min at 95° C. in protein sample buffer containing beta-mercaptoethanol. The gel was stained using silver staining. Lanes of the eluates of peptide- and control-beads were cut out and analyzed by mass spectrometry.

Row | Binder | percent of circulating neutrophils bound, average of donors (human CD177 [1]) [%] | further results
1 | B1 | ~60 | 
2 | B2 | ~60 | 
3 | B3 | ~60 | 
4 | B4 | ~60 | 
5 | LQIQSWSSSP (peptide, part only; not given: phage coat protein VIII, part only) [phage presenting the … (SEQ ID NO: 9) peptide on coat protein VIII] |  | percent of neutrophils bound (murine CD177 [2]): 95%
6 | B5 | ~60 | 
7 | B6 | ~60 | 
8 | B7 | ~60 | 
9 | SSLMTTQLIATSI (peptide, not shown: large carriers) [phage presenting peptide 14 (SSL)] | 60 | 
10 | B8 |  | binding result (human CD177 [3]): no binding; Kd (murine CD177 [4]): 3.3 µM; peptide/control ratio (murine CD177 [5]): 7.89
